The supplement of paper PMC9170038

System: MS2 coat protein
Assay: apparent KD of MS2 coat protein; designed switch direction (-1 OFF switch, 1 ON switch): -1; higher = weaker reporter binding
How it was run: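 Designed RNA switches sharing common flanks were transcribed on Illumina chips by stalled E. coli RNA polymerase. They were titrated with SNAP-549-labelled MS2 coat protein, from 0.7 or 1.5 nM doubling to 3 µM, in Tris-HCl pH 7.5 buffer with KCl, MgCl2, BSA, DTT, tRNA and Tween-20. Titrations ran without input, with 200 uM small-molecule ligand, or with an oligonucleotide input. The apparent KD of each design is the median over its clusters, after curve-fitting of normalised cluster fluorescence.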

[1] = Eterna round: R95, input ligand: FMN 200 uM
[2] = Eterna round: R95, input ligand: microRNA oligo, concentration not stated
[3] = Eterna round: R95, input ligand: none
[4] = input ligand: microRNA oligo, concentration not stated

Sequence	apparent KD of MS2 coat protein (input ligand: FMN 200 uM)	apparent KD of MS2 coat protein (input ligand: none)	apparent KD of MS2 coat protein [1]	apparent KD of MS2 coat protein [2]	apparent KD of MS2 coat protein [3]	apparent KD of MS2 coat protein [4]
CCCUCACAUGAGGAUCACCCAUGUAAGGAUAUCUUCGCUUUGACGUUGUUGAAUGCGAAGAGAAGGUGCACGGC [jl-ex1-4.71 ViennaUCT mod] (Eterna round: R97, puzzle: Exclusion 1)	0.043 µM	0.0209 µM	–	–	–	–
UAAUACAAGUAAGGAUUCUACAUGAGGAUCACCCAUGUGCUCGUCUUAUAAAGUACUAUCACGAAAGUGAUAGUACU [Mat - Sensor v3 - turn-off var 1 - Eli Mod - D100] (puzzle: Sensor v3, turn-off variant 1)	–	–	0.0218 µM	0.199 µM	0.0225 µM	–
AAGGAUCGAGGAUAUACAUAGAUACAGAUUCAUGUAGAACUACAUGAGGAUCACCCAUGUAGAAGGCGAUCCUA [Mat - Same state - Mayanna Mod - D120] (Eterna round: R96, puzzle: Exclusion 2)	0.367 µM	0.0413 µM	–	–	–	0.0311 µM
AAGGAUAGAGGAUAUACGUAGAUACAGAUUCAUGUAGAACUACAUGAGGAUCACCCAUGUAGAAGGCUAUCCUA [Fiskers Ex 2 - 6] (Eterna round: R96, puzzle: Exclusion 2)	0.354 µM	0.029 µM	–	–	–	0.0248 µM
ACAUGAGGAUCACCCAUGUCCGGCUGGUCCGUCUCGGCUGUCGAGGAUAUGGCUCGGUGUCCGCGCUAGAAGGCGGGAGCCGGA [Aenatbe mod 76] (Eterna round: R96, puzzle: Exclusion NG 3)	0.0316 µM	0.0454 µM	–	–	–	0.0272 µM
GGUUGGCGAGGAUAUACAUGAGGAUCACCCAUGUGGUCCUGUGGCUGGUCUAAACUUUGUAGAAGGCGCGGGUC [salish99_ex3_r4_022] (Eterna round: R97, puzzle: Exclusion 3)	0.0849 µM	0.0781 µM	–	–	–	–
CGAUGUUAUGUCAGGAUAUGCGUUGCGAAAGCGAUGCAGAAGGGACAUGAGGAUCACCCAUGUCCUAACCAUCG [Omei A 7] (puzzle: Brourd's mod of Exclusion 4)	–	–	–	0.0107 µM	–	–
UUUAUGUCAGGAUAUACAUGAGGAUCACCCAUGUAUACCUUAAGGUAUACAUGGGAAUGUAGAAGGGACCUCCU [Omei Ex3 Pseudoloop 8] (Eterna round: R97, puzzle: Exclusion 3)	0.0266 µM	0.0467 µM	–	–	–	–
CGUCAGUCAGGAUAUACUUACGUAGACAUGAGGAUCACCCAUGUGACGUGGGACUGGUGAGUAGAAGGGACGAACA [EX5 #76] (Eterna round: R97, puzzle: Exclusion 5)	0.0273 µM	0.0181 µM	–	–	–	–
AUCAGCUCGUCAGGAUAUAUAUACAUGAGGAUCACCCAUGUAAGAUCAGGCUUCGGCCAAUGUAUAUAGAAGGGACGAGCUGAU [ENG2/11-B3] (Eterna round: R96, puzzle: Exclusion NG 2)	1.55 µM	0.771 µM	–	–	–	0.371 µM
GAUUAUGCGAGCUUUAGGGACAUGAGGAUCACCCAUGUUCGUCUUAUUAGUCUAGGUACGCUAACAUACCUAAAUCU [JMF 40] (puzzle: Sensor v3, turn-off variant 1)	–	–	0.0202 µM	0.0359 µM	0.0228 µM	–
UUUCUUGGGCAAGGAUAUCCUGUGCGGUUCCGGCUCGUGUCUGUCACAUGAGGAUCACCCAUGUGGGAGAAGGUGCCUGCGGUU [Design 83] (Eterna round: R96, puzzle: Exclusion NG 2)	0.0154 µM	0.0156 µM	–	–	–	0.0107 µM
UUAUUUAGGUAGGAUAUCGAUACCAAUUACUAUCGAGAAGGGUCUACAUGAGGAUCACCCAUGUUAGCAUGUUU [LRO-Excl6-12-Rocketman] (Eterna round: R97, puzzle: Exclusion 6)	0.0264 µM	0.0249 µM	–	–	–	–
